Measured values: US7326418B2, “Identification of novel factors that block programmed cell death or apoptosis by targeting JNK” (University of Chicago, priority 2001, dated 2008)

Molecular target: T1, JNKK2 (Homo sapiens, UniProt O14733, Q133P/Q94H)
T1 construct: plasmids encoding full-length (FL) human ASK1, MEKK4, JNKK1, and JNKK2; made in house; host or cells: TNT coupled reticulocyte lysate (Promega), in vitro transcription/translation from pBS
T1 sequence (O14733 1-401 Q94H/Q133P limits assumed): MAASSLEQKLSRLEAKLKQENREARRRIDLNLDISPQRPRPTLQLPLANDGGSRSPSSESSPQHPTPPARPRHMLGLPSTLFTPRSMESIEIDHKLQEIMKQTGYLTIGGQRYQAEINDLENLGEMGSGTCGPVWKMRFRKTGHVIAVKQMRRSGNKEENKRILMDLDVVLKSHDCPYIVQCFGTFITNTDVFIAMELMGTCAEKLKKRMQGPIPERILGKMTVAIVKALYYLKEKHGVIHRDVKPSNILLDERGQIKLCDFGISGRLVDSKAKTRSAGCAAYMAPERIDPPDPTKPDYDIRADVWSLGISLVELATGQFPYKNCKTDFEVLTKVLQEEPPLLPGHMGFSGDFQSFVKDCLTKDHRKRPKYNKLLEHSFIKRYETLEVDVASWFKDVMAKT
Test: GST pull-down, GST-Gadd45β beads with in vitro translated 35S-labeled JNKK2
Format: binding
Method: To confirm the above interactions, in vitro, GST pull-down experiments were performed. pBluescript (pBS) plasmids encoding full-length (FL) human ASK1, MEKK4, JNKK1, and JNKK2, or polypeptides derived from the amino- or carboxy-terminal portions of ASK1 (i.e. N-ASK1, spanning from amino acids 1 to 756, and C-ASK1, spanning from amino acids 648 to 1375) were transcribed and translated in vitro using the TNT coupled retyculocyte lysate system (Promega) in the presence of ^35S-methionine. 5 μl of each translation mix were incubated, in vitro, with sepharose-4B beads that had been coated with either purified glutathione-S-transferase (GST) polypeptides or GST-Gadd45β proteins. The latter proteins contained FL murine Gadd45β directly fused to GST. Binding assays were performed according to standard procedures, and ^35S-labeled proteins that bound to beads, as well as 2 μl of each in vitro translation mix (input), were then resolved by SDS polyacrylamide gel electrophoresis. Asterisks indicate the intact translated products. […] Thus, GST pull-down experiments confirmed the strong interaction between Gadd45β and JNKK2 observed in vivo, as well as the weaker interactions of Gadd45β with other kinases in the JNK pathway. These assays also uncovered a weak association between Gadd45β and JNKK1. […]

B1: GST-Gadd45β: full-length murine Gadd45β directly fused to GST, purified from E. coli (protein)
chain: MTLEELVASDNAVQKMQAVTAAVEQLLVAAQRQDRLTVGVYEAAKLMNVDPDSVVLCLLAIDEEEEDDIALQIHFTLIQSFCCDNDIDIVRVSGMQRLAQLLGEPAETLGTTEARDLHCLLVTNCHTDSWKSQGLVEVASYCEESRGNNQWVPYISLEER
modifications: left off: a dimerising Fc or GST
notes: full-length murine Gadd45β directly fused to GST, purified from E. coli
  association with FL-JNKK2: strongly associated
